# Where two headings read alike, the source gives them in different places.
# Assays:
# Assay in all cases: single-molecule fluorescence in zero-mode waveguides
# [1] = biological target: Escherichia coli 70S ribosome (Cy3B-30S and BHQ-50S subunits) on biotinylated 6(FK) mRNA (E. coli) (UniProt P0AG67)
# [2] = biological target: Escherichia coli 70S ribosome (Cy3B-30S and BHQ-50S subunits) on biotinylated 6(FK) mRNA (E. coli) (UniProt P0AG67); remark: listed apart in the source
# [3] = biological target: Escherichia coli 70S ribosome (Cy3B-30S and BHQ-50S subunits) on biotinylated 6(FK) mRNA (E. coli) (UniProt P0AG67); remark: listed apart in the source
substance,measurement,setting,value
Cy5-labeled single-cysteine elongation factor G (EF-G S73C on a cysteine-free background) (from UniProt P0A6M8 1-704) (enzyme),dwell time,[1],192 ms
same,arrival time against that of EF-G-GDPNP,[2],150 % longer
same,bound-state lifetime,[2],191 ms
same,dwell time,[2],1.64 s
same,dwell time (events with counter-rotation),[2],122 ms
same,dwell time (sampling of the non-rotated state),[2],64.2 ms
same,"dwell time (sampling of the rotated state, no conformational change)",[2],75.8 ms
same,dwell time after the counter-rotation,[2],10 ms
same,dwell time with fusidic acid,[2],8.4 s
same,koff,[2],13.2 s⁻¹
same,mean dwell time with spectinomycin (sampling of the rotated state),[2],351 ms
same,mean dwell time with spectinomycin (successful translocation events),[2],326 ms
same,mean lifetime of the complex,[2],1.62 s
same,arrival time against that of EF-G-GDPNP,[3],150 % longer
same,bound-state lifetime,[3],332 ms

# Reference: PMC3883222
